Test [1] has as its target T1, cynomolgus monkey (cyno) CD22 expressed on the surface of CHO cells (cynomolgus monkey).
T1 construct: residues 1-19 (signal) should be removed
T1 chain: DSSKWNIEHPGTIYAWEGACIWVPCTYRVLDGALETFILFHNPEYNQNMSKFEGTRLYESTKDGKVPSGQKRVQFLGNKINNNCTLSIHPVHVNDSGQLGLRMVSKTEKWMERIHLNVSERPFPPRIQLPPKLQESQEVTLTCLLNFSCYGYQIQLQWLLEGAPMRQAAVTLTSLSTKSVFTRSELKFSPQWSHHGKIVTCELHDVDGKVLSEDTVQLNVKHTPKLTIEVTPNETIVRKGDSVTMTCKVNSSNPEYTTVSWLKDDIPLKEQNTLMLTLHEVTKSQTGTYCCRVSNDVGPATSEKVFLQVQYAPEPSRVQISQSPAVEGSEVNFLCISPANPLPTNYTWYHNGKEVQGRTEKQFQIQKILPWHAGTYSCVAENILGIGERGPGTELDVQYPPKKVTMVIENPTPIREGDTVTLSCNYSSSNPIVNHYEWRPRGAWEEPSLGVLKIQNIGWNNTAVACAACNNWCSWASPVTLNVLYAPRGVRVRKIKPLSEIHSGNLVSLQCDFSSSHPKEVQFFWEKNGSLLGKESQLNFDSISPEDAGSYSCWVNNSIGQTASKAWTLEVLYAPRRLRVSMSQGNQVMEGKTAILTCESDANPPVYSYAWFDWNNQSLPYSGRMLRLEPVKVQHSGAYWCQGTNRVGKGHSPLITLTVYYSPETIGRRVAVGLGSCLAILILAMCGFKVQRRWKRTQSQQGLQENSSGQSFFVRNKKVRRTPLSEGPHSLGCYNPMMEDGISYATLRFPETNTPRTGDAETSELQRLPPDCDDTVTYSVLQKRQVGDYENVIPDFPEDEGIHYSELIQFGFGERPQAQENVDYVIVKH
The test can be described thus: cell-based competitive binding of 125I-labelled against unlabelled antibody on CHO cells, 4 h at 4 C, Scatchard analysis. As for the experimental part:
(§1) Briefly, CHO cells stably expressing full length human CD22 (SEQ ID NO:27) or cynomolgus monkey (cyno) CD22 (SEQ ID NO:31). […] A cell-based, competitive binding assay was performed using serially diluted, unlabeled anti-CD22 antibody. Antibodies were allowed to bind to the cells for 4 hours at 4° C. Binding affinity, KD, of the antibodies was determined in accordance with standard Scatchard analysis performed utilizing a non-linear curve fitting program (see, for example, Munson et al., Anal Biochem, 107: 220-239, 1980).

The target in test [2] is T2, CD22 expressed on the surface of BJAB-lucs cells (human, UniProt P20273 20-847).
T2 construct: whole, on cells; also called CD22 expressed on BJAB-lucs cells
T2 sequence (looked up): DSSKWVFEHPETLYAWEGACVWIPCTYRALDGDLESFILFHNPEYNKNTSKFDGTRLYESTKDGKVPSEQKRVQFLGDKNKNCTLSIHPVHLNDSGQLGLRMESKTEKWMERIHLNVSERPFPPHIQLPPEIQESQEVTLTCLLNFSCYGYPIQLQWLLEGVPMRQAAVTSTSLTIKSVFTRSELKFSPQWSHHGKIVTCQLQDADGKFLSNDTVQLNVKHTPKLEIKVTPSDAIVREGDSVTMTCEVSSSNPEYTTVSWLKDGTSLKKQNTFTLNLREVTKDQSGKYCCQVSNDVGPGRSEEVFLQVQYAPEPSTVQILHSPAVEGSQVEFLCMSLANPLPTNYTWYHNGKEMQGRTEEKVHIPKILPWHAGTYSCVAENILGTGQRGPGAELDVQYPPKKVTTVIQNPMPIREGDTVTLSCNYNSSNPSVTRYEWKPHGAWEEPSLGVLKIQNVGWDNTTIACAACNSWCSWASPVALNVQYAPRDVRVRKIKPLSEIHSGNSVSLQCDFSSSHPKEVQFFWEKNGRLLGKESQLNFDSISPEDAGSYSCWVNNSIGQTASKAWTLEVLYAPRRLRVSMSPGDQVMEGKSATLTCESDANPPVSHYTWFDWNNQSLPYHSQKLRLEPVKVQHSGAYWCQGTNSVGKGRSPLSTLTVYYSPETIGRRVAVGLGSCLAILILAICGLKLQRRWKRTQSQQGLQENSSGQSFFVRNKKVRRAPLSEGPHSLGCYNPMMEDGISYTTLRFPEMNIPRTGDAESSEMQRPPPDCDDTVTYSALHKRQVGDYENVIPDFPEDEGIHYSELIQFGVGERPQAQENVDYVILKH
The test can be described thus: FACS on BJAB-lucs cells; biotinylated goat anti-huFc plus Streptavidin-PE. The text has this:
Anti-CD22 antibody bound to the cell surface was detected using biotinylated goat anti-huFc plus Streptavidin-PE.

For test [3], the target named is T3, human CD22-beta-ECD-His tagged soluble antigen (human, UniProt P20273 22-681).
T3 construct: also called soluble CD22 extracellular domain (ECD); Soluble Human CD22
T3 sequence: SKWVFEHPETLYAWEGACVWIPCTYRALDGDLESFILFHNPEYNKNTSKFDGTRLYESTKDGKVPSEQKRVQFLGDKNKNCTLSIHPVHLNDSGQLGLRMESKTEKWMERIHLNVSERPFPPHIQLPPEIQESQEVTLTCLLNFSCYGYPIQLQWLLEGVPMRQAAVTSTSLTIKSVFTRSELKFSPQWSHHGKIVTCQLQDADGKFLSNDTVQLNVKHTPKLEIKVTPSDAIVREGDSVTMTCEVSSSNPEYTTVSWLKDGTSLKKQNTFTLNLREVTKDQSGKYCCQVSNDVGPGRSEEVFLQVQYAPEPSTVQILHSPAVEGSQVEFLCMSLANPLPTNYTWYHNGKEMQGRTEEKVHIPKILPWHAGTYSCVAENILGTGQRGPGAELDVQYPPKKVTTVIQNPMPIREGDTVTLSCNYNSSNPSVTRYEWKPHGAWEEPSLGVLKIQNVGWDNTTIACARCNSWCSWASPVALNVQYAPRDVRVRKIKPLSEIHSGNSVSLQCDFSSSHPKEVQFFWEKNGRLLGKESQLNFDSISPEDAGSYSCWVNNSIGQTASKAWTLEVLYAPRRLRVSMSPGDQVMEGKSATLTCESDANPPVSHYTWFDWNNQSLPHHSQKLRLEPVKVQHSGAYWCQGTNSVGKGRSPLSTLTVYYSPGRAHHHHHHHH
The test can be described thus: SPR (BIACORE 3000), antibody coupled to the chip, soluble CD22-beta-ECD-His injected, 25 C. As for the experimental part:
The binding affinity of murine and humanized 10F4 antibody for soluble CD22 extracellular domain (ECD) was determined by surface plasmon resonance measurement using a BIACORE® 3000 system (Biacore, Inc., Piscataway, N.J.). Briefly, carboxymethylated dextran biosensor chips (CMS, Biacore Inc.) were activated with N-ethyl-N′-(3-dimethylaminopropyl)-carbodiimide hydrochloride (EDC) and N-hydroxysuccinimide (NHS) according to the supplier's instructions. These activated chips were coated with anti-CD22 IgG1 antibody 10F4 (murine or humanized) by dilution to 5 μg/ml with 10 mM sodium acetate, pH 4.8, before injection at a flow rate of […] to achieve approximately 500 response units (RU) of coupled antibody. Next, 1M ethanolamine was injected to block unreacted groups. […] Association rates (kₒₙ) and dissociation rates (koff) were calculated using a simple one-to-one Langmuir binding model (BIAevaluation Software version 3.2). The equilibrium dissociation constant (Kd) was calculated as the ratio koff/kₒₙ. Anti-CD22 antibody, RFB4, was used as a control (Chemicon International, Inc., Temecula, Calif., catalog no. CBL147).
(In general: Surface plasmon resonance follows binding to a sensor surface in real time, without labels.)

The target of test [4] is T1, cynomolgus monkey (cyno) CD22 expressed …. The test can be described thus: cell-based competitive binding of 125I-labelled against unlabelled antibody on CHO cells, Scatchard analysis; repeated assays. As for the experimental part:
as §1

Numbering of substitutions follows the chain as printed. Numbers in names are those of the source. Where “and” joins values, the source holds several entries; their conditions need not be identical. Identical values can stand only once.

The term Kd denotes the free concentration of one partner at which half of the binding sites on the other are occupied at equilibrium, for simple one-to-one binding. In general, koff refers to the rate constant with which the complex falls apart. The kon is the rate constant with which the complex forms.

B1: humanized 10F4 version 2 antibody (antibody, human IgG1, kappa)
heavy: not shown
light: DIQMTQSPSSLSASVGDRVTITCRSSQSIVHSVGNTFLEWYQQKPGKAPKLLIYKVSNRFSGVPSRFSGSGSGTDFTLTISSLQPEDFATYYCFQGSQFPYTFGQGTKVEIKRTVAAPSVFIFPPSDEQLKSGTASVVCLLNNFYPREAKVQWKVDNALQSGNSQESVTEQDSKDSTYSLSSTLTLSKADYEKHKVYACEVTHQGLSSPVTKSFNRGEC
notes: Differs from hu10F4v1 by N28V (Kabat) in HVR-L1; Mature protein identical to hu10F4v3; also called humanized 10F4v2; hu10F4v2
The molecule B1 had a Kd in test [1] of 2.1 nM.

B2: thio hu LC(V205C) 10F4v3-MCvcPAB-MMAE (antibody, human IgG1, kappa)
heavy: not shown
light: B1 light with V210C
modifications: MC-val-cit-PAB-MMAE on the engineered Cys at Kabat position 205 (sequential position 210)
notes: Cysteine engineered IgG1 (ThioMab) drug conjugate; also called thio hu LC-10F4v3-MC-val-cit-PAB-MMAE; Thio 10F4v3-LC(V205C)-MCvcPAB-MMAE
Consider B2, for which the binding result in test [2] was “binds”.

B3: Chimeric 10F4 (antibody, V domains shown)
VH: QVQLQQSGPELVKPGASVKISCKASGYEFSRSWMNWVKQRPGQGREWIGRIYPGDGDTNYSGKFKGKATLTADKSSSTAYMQLSSLTSVDSAVYFCARDGSSWDWYFDVWGAGTTVTVSS
VL: DILMTQTPLSLPVSLGDQASISCRSSQSIVHSNGNTFLEWYLQKPGQSPKLLIYKVSNRFSGVPDRFSGSGSGTDFTLKISRVEAEDLGVYYCFQGSQFPYTFGGGTKVEIK
notes: also called murine chimeric 10F4
Take B3: in test [3], the Kd stood at 16 nM, the koff was determined as 0.00042 s⁻¹ and the kon came out at 26000 M⁻¹ s⁻¹.

B4: humanized 10F4 version 1 antibody (antibody, IgG1, V domains shown)
VH: EVQLVESGGGLVQPGGSLRLSCAASGYEFSRSWMNWVRQAPGKGLEWVGRIYPGDGDTNYSGKFKGRFTISADTSKNTAYLQMNSLRAEDTAVYYCARDGSSWDWYFDVWGQGTLVTVSS
VL: DIQMTQSPSSLSASVGDRVTITCRSSQSIVHSNGNTFLEWYQQKPGKAPKLLIYKVSNRFSGVPSRFSGSGSGTDFTLTISSLQPEDFATYYCFQGSQFPYTFGQGTKVEIKR
notes: only variable domains are tied to v1; also called humanized 10F4v1; hu10F4v1
As for B4, the Kd in test [4] was 1.4 nM and 1.8 nM.

Values taken from patent US20130171170A1 (published 2013).
